Source: patent US20050222029A1 (MYRIAD GENETICS, published 2005)

Experiments:
[1] = biological target: T1, Serum deprivation response 75-258 (human, UniProt O95810 75-258); test: yeast two-hybrid
T1 construct: prey (Gal4 AD-HA fusion)
T1 sequence (looked up): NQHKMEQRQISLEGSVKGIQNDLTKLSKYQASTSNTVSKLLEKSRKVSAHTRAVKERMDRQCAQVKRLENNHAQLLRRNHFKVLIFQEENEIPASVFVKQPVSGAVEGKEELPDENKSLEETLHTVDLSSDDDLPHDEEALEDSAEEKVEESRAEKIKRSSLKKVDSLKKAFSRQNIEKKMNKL

Hook2 protein 290-555 = biological target: T2, Hook2 protein 290-555 (human, UniProt Q96ED9 290-555); test: yeast two-hybrid
T2 construct: prey (Gal4 AD-HA fusion)
T2 sequence (looked up): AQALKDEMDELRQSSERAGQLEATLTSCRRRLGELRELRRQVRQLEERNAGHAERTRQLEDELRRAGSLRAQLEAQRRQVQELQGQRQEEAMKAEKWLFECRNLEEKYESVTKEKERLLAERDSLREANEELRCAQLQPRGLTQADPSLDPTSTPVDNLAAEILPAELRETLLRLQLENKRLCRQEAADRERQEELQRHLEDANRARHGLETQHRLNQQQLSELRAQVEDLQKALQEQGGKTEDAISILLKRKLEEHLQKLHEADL

[2] = biological target: T3, GTPase-activiating protein 1 1392-1657 (human, UniProt P46940 1392-1657); test: yeast two-hybrid
T3 construct: prey (Gal4 AD-HA fusion); also called IQGAP1; IQGAP
T3 sequence (looked up): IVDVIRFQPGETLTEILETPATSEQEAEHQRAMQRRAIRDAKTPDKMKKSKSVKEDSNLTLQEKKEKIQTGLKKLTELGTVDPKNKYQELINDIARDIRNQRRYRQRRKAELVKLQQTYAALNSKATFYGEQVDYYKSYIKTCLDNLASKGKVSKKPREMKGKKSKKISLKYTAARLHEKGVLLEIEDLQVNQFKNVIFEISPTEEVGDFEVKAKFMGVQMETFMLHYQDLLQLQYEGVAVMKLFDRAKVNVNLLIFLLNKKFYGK

[3] = biological target: T4, Mitotic spindle coiled-coil related protein 668-895 (human, UniProt Q96R06 668-895); test: yeast two-hybrid
T4 construct: prey (Gal4 AD-HA fusion)
T4 sequence (looked up): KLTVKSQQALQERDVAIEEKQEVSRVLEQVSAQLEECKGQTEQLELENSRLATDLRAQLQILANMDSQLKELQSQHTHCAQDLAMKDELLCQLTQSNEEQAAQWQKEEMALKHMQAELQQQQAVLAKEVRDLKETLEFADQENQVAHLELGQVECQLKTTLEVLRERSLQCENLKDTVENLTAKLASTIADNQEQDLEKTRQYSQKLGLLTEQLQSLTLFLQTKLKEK

[4] = biological target: T5, Mitotic spindle coiled-coil related protein 701-1082 (human, UniProt Q96R06 701-1082); test: yeast two-hybrid
T5 construct: prey (Gal4 AD-HA fusion)
T5 sequence (looked up): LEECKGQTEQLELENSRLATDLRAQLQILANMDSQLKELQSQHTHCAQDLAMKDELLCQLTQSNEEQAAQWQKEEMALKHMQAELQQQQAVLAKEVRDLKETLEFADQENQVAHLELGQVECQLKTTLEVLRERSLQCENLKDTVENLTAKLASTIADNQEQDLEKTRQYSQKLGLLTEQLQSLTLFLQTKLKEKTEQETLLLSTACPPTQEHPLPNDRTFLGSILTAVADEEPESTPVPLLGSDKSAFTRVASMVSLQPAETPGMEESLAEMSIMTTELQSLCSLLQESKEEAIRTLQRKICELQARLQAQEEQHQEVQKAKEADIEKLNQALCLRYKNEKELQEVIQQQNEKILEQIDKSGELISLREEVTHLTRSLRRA

Keratin 8 147-406 = biological target: T6, Keratin 8 147-406 (human, UniProt P05787 147-406); test: yeast two-hybrid
T6 construct: prey (Gal4 AD-HA fusion)
T6 sequence (looked up): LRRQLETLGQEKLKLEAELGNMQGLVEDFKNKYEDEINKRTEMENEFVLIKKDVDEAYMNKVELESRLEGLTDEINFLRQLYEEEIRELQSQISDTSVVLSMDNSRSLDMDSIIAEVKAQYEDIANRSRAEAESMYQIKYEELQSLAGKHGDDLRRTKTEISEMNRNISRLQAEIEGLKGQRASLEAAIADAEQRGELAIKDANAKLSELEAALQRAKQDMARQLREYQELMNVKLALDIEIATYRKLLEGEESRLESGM

[5] = biological target: T7, Mitotic spindle coiled-coil related protein 723-1012 (human, UniProt Q96R06 723-1012); test: yeast two-hybrid
T7 construct: prey (Gal4 AD-HA fusion)
T7 sequence (looked up): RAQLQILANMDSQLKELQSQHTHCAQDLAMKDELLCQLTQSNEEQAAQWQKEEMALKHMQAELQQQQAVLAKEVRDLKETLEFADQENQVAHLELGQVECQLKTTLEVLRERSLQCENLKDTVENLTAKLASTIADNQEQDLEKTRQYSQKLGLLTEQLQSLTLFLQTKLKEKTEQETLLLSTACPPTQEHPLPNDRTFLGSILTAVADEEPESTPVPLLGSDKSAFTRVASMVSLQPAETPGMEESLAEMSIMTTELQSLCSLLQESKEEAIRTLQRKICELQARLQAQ

[6] = biological target: T8, GTPase-activiating protein 1 1308-1606 (human, UniProt P46940 1308-1606); test: yeast two-hybrid
T8 construct: prey (Gal4 AD-HA fusion); also called IQGAP1; IQGAP
T8 sequence (looked up): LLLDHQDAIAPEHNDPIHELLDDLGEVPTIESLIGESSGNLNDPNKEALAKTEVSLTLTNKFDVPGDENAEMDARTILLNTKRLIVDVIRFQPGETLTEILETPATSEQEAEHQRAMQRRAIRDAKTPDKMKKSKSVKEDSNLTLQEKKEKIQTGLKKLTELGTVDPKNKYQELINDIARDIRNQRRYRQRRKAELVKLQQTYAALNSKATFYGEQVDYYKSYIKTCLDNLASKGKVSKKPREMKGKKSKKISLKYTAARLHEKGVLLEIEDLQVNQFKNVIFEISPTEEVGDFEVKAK

VPS28 protein 27-221 = biological target: T9, VPS28 protein 27-221 (human, UniProt Q9UK41 27-221); test: yeast two-hybrid, breast and prostate cancer library
T9 construct: prey (Gal4 AD-HA fusion); also called vacuolar protein sorting 28
T9 sequence (looked up): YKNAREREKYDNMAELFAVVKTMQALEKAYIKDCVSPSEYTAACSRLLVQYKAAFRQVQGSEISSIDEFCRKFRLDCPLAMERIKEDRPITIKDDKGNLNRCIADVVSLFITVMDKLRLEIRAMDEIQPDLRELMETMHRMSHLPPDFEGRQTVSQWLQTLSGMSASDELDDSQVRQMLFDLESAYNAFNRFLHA

Measured: binding result

B1: Tumor Suppressor (TSG101) 240-391 (other, human, UniProt Q99816 240-390, looked up)
chain: WRMKEEMDRAQAELNALKRTEEDLKKGHQKLEEMVTRLDQEVAEVDKNIELLKKKDEELSSALEKMENQSENNDIDEVIIPTAPLYKQILNLYAEENAIEDTIFYLGEALRRGVIDLDVFLKHVRLLSRKQFQLRALMQKARKTAGLSDLY
notes: range 240-391; bait (Gal4 DBD fusion); also called TSG101 240-390
binds: all assays above
